Earlier results, collected in patent publication US9056141B2, “Thiol-ene click chemistry for drug conjugates” (priority 2012, dated 2015).

Conditions: patients receiving Adcetris treatment

For brentuximab vedotin [Adcetris], the “patients in clinical trials experiencing serious adverse events” value is listed as 31% and the “patients discontinuing the treatment due to adverse events” value (clinical trials) is listed as 21%.
